Blank lines part the entries; values can stand above or below the binder they belong to.
Legend:
[1] = target: T1, P7A-bP; assay: two-hybrid library CCNG1;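 further: natural log of median RNA to DNA barcode read ratio; higher means stronger binding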
T1 chain: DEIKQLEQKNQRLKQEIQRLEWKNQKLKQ

[2] = target: T2, P8A-bP; assay: two-hybrid library CCNG1;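 further: natural log of median RNA to DNA barcode read ratio; higher means stronger binding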
T2 chain: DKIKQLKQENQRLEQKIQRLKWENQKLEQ

[3] = target: T3, P9A-bP; assay: two-hybrid library CCNG1;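 further: natural log of median RNA to DNA barcode read ratio; higher means stronger binding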
T3 chain: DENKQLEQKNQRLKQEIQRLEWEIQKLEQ

[4] = target: T4, P7A; assay: two-hybrid library CCNG1;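 further: natural log of median RNA to DNA barcode read ratio; higher means stronger binding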
T4 chain: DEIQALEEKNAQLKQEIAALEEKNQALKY

[5] = target: T5, P8A; assay: two-hybrid library CCNG1
T5 chain: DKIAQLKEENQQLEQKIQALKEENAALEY

[6] = target: T6, P9A; assay: two-hybrid library CCNG1
T6 chain: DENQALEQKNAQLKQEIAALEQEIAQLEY

[7] = target: T7, P6bH1; assay: two-hybrid library CCNG1
T7 chain: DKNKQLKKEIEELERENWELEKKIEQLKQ

[8] = target: T8, P7bH1; assay: two-hybrid library CCNG1
T8 chain: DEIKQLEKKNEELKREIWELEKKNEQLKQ

[9] = target: T9, P8bH1; assay: two-hybrid library CCNG1
T9 chain: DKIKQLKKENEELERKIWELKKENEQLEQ

[10] = target: T10, P9bH1; assay: two-hybrid library CCNG1
T10 chain: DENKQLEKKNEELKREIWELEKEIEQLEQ

[11] = target: T11, 4H2692-bN; assay: two-hybrid library CCNG1
T11 chain: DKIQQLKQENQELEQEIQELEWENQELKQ

[12] = target: T12, 4H2717-bN; assay: two-hybrid library CCNG1
T12 chain: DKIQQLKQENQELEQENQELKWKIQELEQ

[13] = target: T13, 4H2839-bN; assay: two-hybrid library CCNG1
T13 chain: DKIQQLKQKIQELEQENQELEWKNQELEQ

[14] = target: T14, 4H2915-bN; assay: two-hybrid library CCNG1
T14 chain: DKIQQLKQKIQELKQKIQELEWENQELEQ

[15] = target: T15, 4H3057-bN; assay: two-hybrid library CCNG1
T15 chain: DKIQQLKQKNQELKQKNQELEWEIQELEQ

[16] = target: T16, 4H319-bN; assay: two-hybrid library CCNG1
T16 chain: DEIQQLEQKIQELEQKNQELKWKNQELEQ

[17] = target: T17, 4H3277-bN; assay: two-hybrid library CCNG1
T17 chain: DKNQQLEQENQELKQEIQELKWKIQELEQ

[18] = target: T18, 4H348-bN; assay: two-hybrid library CCNG1
T18 chain: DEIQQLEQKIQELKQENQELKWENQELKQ

[19] = target: T19, 4H40-bN; assay: two-hybrid library CCNG1
T19 chain: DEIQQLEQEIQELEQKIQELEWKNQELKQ

[20] = target: T20, 4H477-bN; assay: two-hybrid library CCNG1
T20 chain: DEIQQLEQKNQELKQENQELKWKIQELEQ

[21] = target: T21, 4H492-bN; assay: two-hybrid library CCNG1
T21 chain: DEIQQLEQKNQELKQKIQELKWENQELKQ

[22] = target: T22, 4H741-bN; assay: two-hybrid library CCNG1
T22 chain: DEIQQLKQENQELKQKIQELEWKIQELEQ

[23] = target: T23, 4H918-bH; assay: two-hybrid library CCNG1
T23 chain: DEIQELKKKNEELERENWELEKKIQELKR

[24] = target: T24, O3-bP; assay: two-hybrid library CCNG1
T24 chain: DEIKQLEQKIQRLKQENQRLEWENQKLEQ

[25] = target: T25, O4-bP; assay: two-hybrid library CCNG1
T25 chain: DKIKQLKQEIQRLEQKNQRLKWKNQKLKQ

[26] = target: T26, O5-bP; assay: two-hybrid library CCNG1
T26 chain: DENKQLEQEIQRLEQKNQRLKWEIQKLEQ

[27] = target: T27, O6-bP; assay: two-hybrid library CCNG1
T27 chain: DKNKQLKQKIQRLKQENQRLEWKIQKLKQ

[28] = target: T28, O7-bP; assay: two-hybrid library CCNG1
T28 chain: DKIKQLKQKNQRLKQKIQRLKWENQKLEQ

[29] = target: T29, O8-bP; assay: two-hybrid library CCNG1
T29 chain: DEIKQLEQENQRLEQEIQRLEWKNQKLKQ

[30] = target: T30, O9-bP; assay: two-hybrid library CCNG1
T30 chain: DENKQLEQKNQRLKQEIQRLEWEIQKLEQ

[31] = target: T31, P5SC2; assay: two-hybrid library CC1
T31 chain: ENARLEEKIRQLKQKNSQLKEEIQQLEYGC

[32] = target: T32, P5mS; assay: two-hybrid library CC1; details: mean of both orientations
T32 chain: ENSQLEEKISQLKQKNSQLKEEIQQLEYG

[33] = target: T33, P6SC1; assay: two-hybrid library CC1; details: mean of both orientations
T33 chain: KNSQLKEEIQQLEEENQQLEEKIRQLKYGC

[34] = target: T34, P6SC2; assay: two-hybrid library CC1; details: mean of both orientations
T34 chain: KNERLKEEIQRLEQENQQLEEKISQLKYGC

[35] = target: T35, P6; assay: two-hybrid library CC1; details: mean of both orientations
T35 chain: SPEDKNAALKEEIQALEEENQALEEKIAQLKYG

[36] = target: T36, P6mS; assay: two-hybrid library CC1; details: mean of both orientations
T36 chain: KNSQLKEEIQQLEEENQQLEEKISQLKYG

[37] = target: T37, P7; assay: two-hybrid library CC1; details: mean of both orientations
T37 chain: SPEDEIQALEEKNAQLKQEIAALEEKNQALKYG

[38] = target: T38, P7mS; assay: two-hybrid library CC1; details: mean of both orientations
T38 chain: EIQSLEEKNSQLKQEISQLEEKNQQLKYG

[39] = target: T39, P8; assay: two-hybrid library CC1; details: mean of both orientations
T39 chain: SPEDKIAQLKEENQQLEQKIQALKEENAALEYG

[40] = target: T40, P8mS; assay: two-hybrid library CC1; details: mean of both orientations
T40 chain: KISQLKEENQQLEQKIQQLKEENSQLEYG

[41] = target: T41, P9; assay: two-hybrid library CC1; details: mean of both orientations
T41 chain: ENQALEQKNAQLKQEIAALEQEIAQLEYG

[42] = target: T42, 4H3020-AA; assay: two-hybrid library CCmax
T42 chain: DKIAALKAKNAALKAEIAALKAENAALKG

[43] = target: T43, 4H3365-AA; assay: two-hybrid library CCmax; details: mean of both orientations
T43 chain: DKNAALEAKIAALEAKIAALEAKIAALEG

[44] = target: T44, 4H355-AA; assay: two-hybrid library CCmax; details: mean of both orientations
T44 chain: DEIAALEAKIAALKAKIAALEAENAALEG

[45] = target: T45, 4H3651-AA; assay: two-hybrid library CCmax; details: mean of both orientations
T45 chain: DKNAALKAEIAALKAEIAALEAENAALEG

[46] = target: T46, 4H3705-AA; assay: two-hybrid library CCmax; details: mean of both orientations
T46 chain: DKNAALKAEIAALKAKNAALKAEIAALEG

[47] = target: T47, 4H3782-AA; assay: two-hybrid library CCmax; details: mean of both orientations
T47 chain: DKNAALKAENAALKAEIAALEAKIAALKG

[48] = target: T48, 4H465-AA; assay: two-hybrid library CCmax; details: mean of both orientations
T48 chain: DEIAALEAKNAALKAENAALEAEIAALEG

[49] = target: T49, 4H486-AA; assay: two-hybrid library CCmax; details: mean of both orientations
T49 chain: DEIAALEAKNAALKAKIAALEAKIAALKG

[50] = target: T50, 4H535-AA; assay: two-hybrid library CCmax; details: mean of both orientations
T50 chain: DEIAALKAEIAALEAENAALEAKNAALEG

[51] = target: T51, 4H58-AA; assay: two-hybrid library CCmax; details: mean of both orientations
T51 chain: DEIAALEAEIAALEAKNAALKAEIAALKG

[52] = target: T52, 4H895-AA; assay: two-hybrid library CCmax; details: mean of both orientations
T52 chain: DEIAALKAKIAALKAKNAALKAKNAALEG

[53] = target: T53, 4H_APH; assay: two-hybrid library CCmax; details: mean of both orientations
T53 chain: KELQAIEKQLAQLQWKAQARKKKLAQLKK

[54] = target: T54, 4H_BCR; assay: two-hybrid library CCmax; details: mean of both orientations
T54 chain: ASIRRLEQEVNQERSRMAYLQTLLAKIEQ

[55] = target: 4H_GCN4; assay: two-hybrid library CCmax; details: mean of both orientations
[56] = target: GCN2_T; assay: two-hybrid library CCmax
[57] = target: T55, O4-bN; assay: two-hybrid library CCNG1
T55 chain: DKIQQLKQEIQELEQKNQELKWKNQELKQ

[58] = target: T56, O5-bN; assay: two-hybrid library CCNG1
T56 chain: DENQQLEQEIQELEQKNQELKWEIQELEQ

[59] = target: T57, O6-bN; assay: two-hybrid library CCNG1
T57 chain: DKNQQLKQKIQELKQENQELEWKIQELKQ

[60] = target: T58, O7-bN; assay: two-hybrid library CCNG1
T58 chain: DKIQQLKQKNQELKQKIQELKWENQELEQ

[61] = target: T59, O8-bN; assay: two-hybrid library CCNG1
T59 chain: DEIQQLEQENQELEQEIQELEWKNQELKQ

[62] = target: T60, O9-bN; assay: two-hybrid library CCNG1
T60 chain: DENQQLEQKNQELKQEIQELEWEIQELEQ

Chain of 4H_GCN4 (chain, as listed by the source): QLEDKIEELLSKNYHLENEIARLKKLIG

interaction score [1]: -1.33
interaction score [2]: 1.1
interaction score [3]: -0.571
Binder: DEIKQLEQKNQRLKQEIQRLEWKNQKLKQ [P7A-bP]

interaction score [4]: -0.598
interaction score [5]: 2.24
interaction score [6]: -0.697
Binder: DEIQALEEKNAQLKQEIAALEEKNQALKY [P7A]

interaction score [7]: -0.419
interaction score [8]: 1.39
interaction score [9]: 0.525
interaction score [10]: 0.0468
Binder: DKNKQLKKEIEELERENWELEKKIEQLKQ [P6bH1]

interaction score [9]: -0.114
interaction score [10]: -0.01
Binder: DKIKQLKKENEELERKIWELKKENEQLEQ [P8bH1]

interaction score [11]: 0.234
interaction score [12]: -0.423
interaction score [13]: -0.832
interaction score [14]: -0.419
interaction score [15]: 0.294
interaction score [16]: -0.482
interaction score [17]: -0.49
interaction score [18]: 0.502
interaction score [19]: -0.333
interaction score [20]: -0.405
interaction score [21]: 1.22
interaction score [22]: -0.795
interaction score [23]: 1.17
Binder: DKIQQLKQENQELEQEIQELEWENQELKQ [4H2692-bN]

interaction score [24]: -0.797
interaction score [25]: 1.15
interaction score [26]: -1.53
interaction score [27]: -0.828
interaction score [28]: -1.61
interaction score [29]: -0.905
interaction score [30]: -1.8
Binder: DEIKQLEQKIQRLKQENQRLEWENQKLEQ [O3-bP]

Binder: ENARLEEKIRQLKQKNSQLKEEIQQLEYGC [P5SC2]
interaction score [31]: -2.86
interaction score [32]: -2.94
interaction score [33]: 0.316
interaction score [34]: 0.408
interaction score [35]: 0.225
interaction score [36]: 0.24
interaction score [37]: -2.39
interaction score [38]: -2.77
interaction score [39]: -1.1
interaction score [40]: -2.45
interaction score [41]: -2.39

interaction score [8]: -0.0541
interaction score [9]: 1.89
interaction score [10]: -0.3
Binder: DEIKQLEKKNEELKREIWELEKKNEQLKQ [P7bH1]

interaction score [2]: -0.396
interaction score [3]: 0
Binder: DKIKQLKQENQRLEQKIQRLKWENQKLEQ [P8A-bP]

interaction score [42]: 0.962
interaction score [43]: -1.49
interaction score [44]: -1.86
interaction score [45]: -1.36
interaction score [46]: -1.78
interaction score [47]: -1.57
interaction score [48]: -1.7
interaction score [49]: -1.33
interaction score [50]: -1.47
interaction score [51]: -0.528
interaction score [52]: -1.5
interaction score [53]: -2.43
interaction score [54]: -1.87
interaction score [55]: -0.937
interaction score [56]: -0.848
Binder: DKIAALKAKNAALKAEIAALKAENAALKG [4H3020-AA]

interaction score [57]: -0.666
interaction score [58]: -0.492
interaction score [59]: 0.639
interaction score [60]: -0.226
interaction score [61]: -0.553
interaction score [62]: -0.542
Binder: DKIQQLKQEIQELEQKNQELKWKNQELKQ [O4-bN]

— article PMC10397247
